# Results as given in publication PMC3173486.
# Experiments:
# [1] = biological target: HA of A/HongKong/156/97 (H5N1, clade 0) (influenza A virus A/HongKong/156/97 (H5N1)) (UniProt O56140)
# [2] = biological target: HA of A/HongKong/156/97 (H5N1, clade 0) (influenza A virus A/HongKong/156/97 (H5N1)), O56140
# [3] = biological target: HA of the H5N1 viruses
# [4] = biological target: HA of A/VietNam/1194/04 (H5N1, clade 1) (influenza A virus A/VietNam/1194/04 (H5N1))
# [5] = biological target: HA of A/Indonesia/5/05 (H5N1, clade 2.1) (influenza A virus A/Indonesia/5/05 (H5N1))
molecule,measurement,setting,value
RpSP-D trimers (from UniProt Q9N1X4 21-378) (natural protein),HI assay: minimal inhibitory concentration of RpSP-D trimers; failed to inhibit,[1],> 4500 ng/100 µl
"recombinant porcine SP-D, Q9N1X4 21-378 (natural protein) AEMKTYSQRAVANACALVMCSPMENGLPGRDGRDGREGPRGEKGDPGLPGAVGRAGMPGLAGPVGPKGDNGSTGEPGAKGDIGPCGPPGPPGIPGPAGKEGPSGQQGNIGPPGTPGPKGETGPKGEVGALGMQGSTGARGPAGLKGERGAPGERGAPGSAGAAGPAGATGPQGPSGARGPPGLKGDRGPPGERGAKGESGLPGITALRQQVETLQGQVQRLQKAFSQYKKVELFPNGRGVGEKIFKTGGFEKTFQDAQQVCTQAGGQMASPRSETENEALSQLVTAQNKAAFLSMTDIKTEGNFTYPTGEPLVYANWAPGEPNNNGGSSGAENCVEIFPNGKWNDKACGELRLVICEF",HI assay: concentration of RpSP-D required to prevent hemagglutination,[2],4500 ng/100 µl
RpSP-D multimers (natural protein) AEMKTYSQRAVANACALVMCSPMENGLPGRDGRDGREGPRGEKGDPGLPGAVGRAGMPGLAGPVGPKGDNGSTGEPGAKGDIGPCGPPGPPGIPGPAGKEGPSGQQGNIGPPGTPGPKGETGPKGEVGALGMQGSTGARGPAGLKGERGAPGERGAPGSAGAAGPAGATGPQGPSGARGPPGLKGDRGPPGERGAKGESGLPGITALRQQVETLQGQVQRLQKAFSQYKKVELFPNGRGVGEKIFKTGGFEKTFQDAQQVCTQAGGQMASPRSETENEALSQLVTAQNKAAFLSMTDIKTEGNFTYPTGEPLVYANWAPGEPNNNGGSSGAENCVEIFPNGKWNDKACGELRLVICEF,HI assay: minimal inhibitory concentration of RpSP-D multimers,[3],1400 ng/100 µl
RpSP-D trimers (natural protein) AEMKTYSQRAVANACALVMCSPMENGLPGRDGRDGREGPRGEKGDPGLPGAVGRAGMPGLAGPVGPKGDNGSTGEPGAKGDIGPCGPPGPPGIPGPAGKEGPSGQQGNIGPPGTPGPKGETGPKGEVGALGMQGSTGARGPAGLKGERGAPGERGAPGSAGAAGPAGATGPQGPSGARGPPGLKGDRGPPGERGAKGESGLPGITALRQQVETLQGQVQRLQKAFSQYKKVELFPNGRGVGEKIFKTGGFEKTFQDAQQVCTQAGGQMASPRSETENEALSQLVTAQNKAAFLSMTDIKTEGNFTYPTGEPLVYANWAPGEPNNNGGSSGAENCVEIFPNGKWNDKACGELRLVICEF,HI assay: minimal inhibitory concentration of RpSP-D trimers; failed to inhibit,[4],> 4500 ng/100 µl
same,HI assay: minimal inhibitory concentration of RpSP-D trimers; failed to inhibit,[5],> 4500 ng/100 µl
